From patent publication US7972772B2, “KIF11 and method for diagnosing non-small cell lung cancer” (Oncotherapy Science, Inc., priority 2004, dated 2011)

Legend:
[1] = system: RAB35 mRNA; experiment: Northwestern blot analysis with DIG-labeled RAB35 mRNA; format: binding; conditions: deletion mutants expressed in A549 cells, compared to full-length KOC1
Protocol: Immunoprecipitated extracts from cells transfected with the KOC1 deletion mutants (μM) were boiled in 2×SDS-sample buffer, electrophoresed through 10-20% gradient polyacrylamide gels (BIO-RAD) and transferred to a polyvinylidene difluoride membrane (Hybond-P). The membrane was then blocked for 1 hour at room temperature in blocking buffer (10 mM Tris-HCl (pH 7.8), 150 mM NaCl, 1 mg/ml yeast tRNA), and washed twice with 50 ml of 10 mM Tris-HCl (pH 7.8) for 5 min and incubated with DIG-labeled RNA probe in 5 ml of NWB buffer (10 mM Tris-HCl (pH 7.8), 1 mM EDTA, 50 mM NaCl, 0.02% Ficoll, 0.02% polyvinyl pyrrolidone, 0.02% BSA) for 2 hours at room temperature. The membrane was washed four times with NWB buffer and the RNA probe bound to the proteins was then detected using DIG nucleic acid detection kit (Roche) according to the supplier's protocol.
To determine the region of KOC1 that is required for binding to KOC1-associated mRNAs, we performed northwestern blot analysis using immunoprecipitated recombinant proteins of KOC1 deletion-mutants expressed in A549 cells (FIG. 4a) and DIG-labeled RAB35 mRNA, which is one of the KOC1 associated mRNAs.

[2] = molecular target: T1, KOC1-KIF11 complex (Homo sapiens, UniProt P52732); experiment: Immunoprecipitation of endogenous KOC1-KIF11 complex after dominant-negative transfection; format: cell-based
T1 construct: endogenous in cells; host or cells: LC319 (KOC1DEL3) and A549 (KOC1DEL2)
T1 sequence (P52732 1-1056): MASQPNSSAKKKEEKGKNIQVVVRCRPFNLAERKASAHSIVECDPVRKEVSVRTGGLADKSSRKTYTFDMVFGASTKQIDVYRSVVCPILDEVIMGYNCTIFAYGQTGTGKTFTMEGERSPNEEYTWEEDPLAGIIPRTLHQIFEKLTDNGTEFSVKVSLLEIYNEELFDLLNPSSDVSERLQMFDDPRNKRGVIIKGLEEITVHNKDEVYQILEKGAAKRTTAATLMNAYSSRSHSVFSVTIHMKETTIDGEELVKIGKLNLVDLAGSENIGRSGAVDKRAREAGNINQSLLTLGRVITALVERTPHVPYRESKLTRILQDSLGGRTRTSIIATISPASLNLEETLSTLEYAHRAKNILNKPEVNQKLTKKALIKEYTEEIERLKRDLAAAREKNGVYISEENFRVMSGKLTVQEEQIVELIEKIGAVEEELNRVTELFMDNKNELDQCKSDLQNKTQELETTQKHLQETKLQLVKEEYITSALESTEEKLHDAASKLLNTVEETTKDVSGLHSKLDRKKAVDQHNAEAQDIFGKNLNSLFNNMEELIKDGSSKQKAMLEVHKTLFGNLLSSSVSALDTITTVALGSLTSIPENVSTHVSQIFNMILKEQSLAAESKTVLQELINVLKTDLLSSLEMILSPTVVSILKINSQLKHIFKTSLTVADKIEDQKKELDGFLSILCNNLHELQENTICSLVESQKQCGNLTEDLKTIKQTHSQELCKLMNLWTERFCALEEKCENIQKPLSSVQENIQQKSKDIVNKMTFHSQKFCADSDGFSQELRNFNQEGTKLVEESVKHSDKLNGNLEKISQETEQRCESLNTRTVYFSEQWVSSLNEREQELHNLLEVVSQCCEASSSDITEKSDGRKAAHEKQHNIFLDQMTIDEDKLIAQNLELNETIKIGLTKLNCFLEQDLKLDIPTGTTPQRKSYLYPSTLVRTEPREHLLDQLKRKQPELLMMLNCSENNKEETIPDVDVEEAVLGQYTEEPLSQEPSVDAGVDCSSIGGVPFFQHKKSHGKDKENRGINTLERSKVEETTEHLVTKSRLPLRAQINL
Protocol: We performed dominant-negative assays using the KOC1 deletion mutants to investigate the functional role of the KOC1-KIF11 complex in growth or survival of lung-cancer cells. The KOC1DEL3 and KOC1DEL2 construct (FIG. 3a; 10 μg), mock plasmid (10 μg), or plasmid mixtures of both constructs in the final dose of 10-μg DNA (KOC1DEL3 or KOC1DEL2 vs mock (μg), 7.5:2.5; 5:5; or 2.5:7.5, individually) were transfected into LC319 cells. The transfected cells were cultured for 7 days in the presence of G418 and their viability was measured by triplicate MTT assays.
To investigate the functional significance of KOC1-KIF11 interaction for growth or survival of lung-cancer cells, a deletion fragment of KOC1 containing the two RRMs, which was able to interact with KIF11 (KOC1DEL3; FIG. 3a, b) was examined for a dominant-negative function of suppressing direct interaction between endogenous KOC1 and KIF11. […] We also confirmed that transfection of construct containing only KH-domains control have no effect on proliferation. […]

[3] = system: A549 cells; experiment: Triplicate MTT assay of cell viability, A549; format: cell-based, human; conditions: A549, plasmid dose-dependent vs mock; P=0.0006 KOC1DEL2 vs mock
[4] = molecular target: T2, endogenous KIF11 (Homo sapiens, UniProt P52732); experiment: Immunoprecipitation of KOC1 deletion mutants with endogenous KIF11; format: binding
T2 construct: endogenous in cells
T2 sequence (P52732 1-1056): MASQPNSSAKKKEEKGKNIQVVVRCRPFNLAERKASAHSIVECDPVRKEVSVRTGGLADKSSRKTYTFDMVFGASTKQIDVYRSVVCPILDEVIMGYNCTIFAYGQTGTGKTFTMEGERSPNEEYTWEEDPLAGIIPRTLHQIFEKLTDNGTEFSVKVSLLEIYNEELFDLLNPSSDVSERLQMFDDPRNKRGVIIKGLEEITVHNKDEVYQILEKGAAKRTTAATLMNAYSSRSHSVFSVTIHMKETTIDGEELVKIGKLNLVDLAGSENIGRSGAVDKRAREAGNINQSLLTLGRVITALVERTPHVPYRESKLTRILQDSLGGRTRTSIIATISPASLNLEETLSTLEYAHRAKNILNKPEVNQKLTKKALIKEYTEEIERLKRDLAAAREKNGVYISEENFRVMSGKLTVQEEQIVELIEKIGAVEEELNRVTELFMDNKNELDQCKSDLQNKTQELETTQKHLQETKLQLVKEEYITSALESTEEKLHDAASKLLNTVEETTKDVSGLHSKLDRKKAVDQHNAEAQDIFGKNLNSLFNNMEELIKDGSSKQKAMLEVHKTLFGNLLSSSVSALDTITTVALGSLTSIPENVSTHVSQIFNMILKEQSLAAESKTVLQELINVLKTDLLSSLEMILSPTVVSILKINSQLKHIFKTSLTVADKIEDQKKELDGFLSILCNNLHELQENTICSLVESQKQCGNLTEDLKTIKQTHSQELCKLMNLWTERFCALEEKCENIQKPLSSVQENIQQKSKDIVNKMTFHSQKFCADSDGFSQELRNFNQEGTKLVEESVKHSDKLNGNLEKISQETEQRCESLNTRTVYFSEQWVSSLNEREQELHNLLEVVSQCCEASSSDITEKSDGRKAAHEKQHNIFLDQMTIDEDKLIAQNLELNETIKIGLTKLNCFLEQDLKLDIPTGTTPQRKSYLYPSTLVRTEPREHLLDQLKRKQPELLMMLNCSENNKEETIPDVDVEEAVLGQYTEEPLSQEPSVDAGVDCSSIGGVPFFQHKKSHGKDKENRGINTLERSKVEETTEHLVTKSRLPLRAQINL

[5] = system: LC319 cells; experiment: Triplicate MTT assay of cell viability, LC319; format: cell-based, human; conditions: LC319, plasmid 2.5-10 μg vs mock, 7 days with G418; P<0.001 KOC1DEL3 vs mock
Protocol: Using 30 μl of Lipofectamine 2000 (Invitrogen), 10 μg of siRNA-expression vector were transfected into NSCLC cell lines, A549 and LC319, both endogenously over-expressing KOC1, KIF11, NMU, GHSR1b, NTSR1, RAB35, and FOXM1. […] The transfected cells were cultured for five days in the presence of appropriate concentrations of geneticin (G418), and then, cell numbers and viability were measured by Giemsa staining and triplicate MTT assays. The target sequences of the synthetic oligonucleotides for RNAi were as follows: control 1 (EGFP: enhanced green fluorescent protein (EGFP) gene, a mutant of Aequorea victoria EGFP), 5′-[…]-3′ (SEQ.ID.NO.29); control 2 (Luciferase: Photinus pyralis luciferase gene), 5′-[…]-3′ (SEQ.ID.NO.30); control 3 (Scramble: chloroplast Euglena gracilis gene coding for 5S and 16S rRNAs), 5′-[…]-3′ (SEQ. ID. NO.31);
We performed dominant-negative assays using the KOC1 deletion mutants to investigate the functional role of the KOC1-KIF11 complex in growth or survival of lung-cancer cells. […] The transfected cells were cultured for 7 days in the presence of G418 and their viability was measured by triplicate MTT assays.

B1: KOC1DEL2: KOC1 deletion mutant 2×RRM+2×KH, positions 1 to 406 of SEQ ID NO:105 (protein, listed as Homo sapiens)
chain: MNKLYIGNLSENAAPSDLESIFKDAKIPVSGPFLVKTGYAFVDCPDESWALKAIEALSGKIELHGKPIEVEHSVPKRQRIRKLQIRNIPPHLQWEVLDSLLVQYGVVESCEQVNTDSETAVVNVTYSSKDQARQALDKLNGFQLENFTLKVAYIPDEMAAQQNPLQQPRGRRGLGQRGSSRQGSPGSVSKQKPCDLPLRLLVPTQFVGAIIGKEGATIRNITKQTQSKIDVHRKENAGAAEKSITILSTPEGTSAACKSILEIMHKEAQDIKFTEEIPLKILAHNNFVGRLIGKEGRNLKKIEQDTDTKITISPLQELTLYNPERTITVKGNVETCAKAEEEIMKKIRESYENDIASMNLQAHLIPGLNLNALGLFPPTSGMPPPTSGPPSAMTPPYPQFEQSETE
binding to RAB35 mRNA (northwestern blot) [1]: very weak binding affinities | complex formation between endogenous KOC1 and KIF11 ([2]; A549 cells over-expressing KOC1DEL2): reduced complex formation | cell viability (MTT), dominant-negative assay [3]: significant dose-dependent decreases | interaction with endogenous KIF11 (immunoprecipitation) ([4]; A549 cells): detected interaction

B2: KOC1DEL3: KOC1 deletion mutant 2×RRM without KH, positions 1-197 of SEQ ID NO:105 (protein, listed as Homo sapiens)
chain: MNKLYIGNLSENAAPSDLESIFKDAKIPVSGPFLVKTGYAFVDCPDESWALKAIEALSGKIELHGKPIEVEHSVPKRQRIRKLQIRNIPPHLQWEVLDSLLVQYGVVESCEQVNTDSETAVVNVTYSSKDQARQALDKLNGFQLENFTLKVAYIPDEMAAQQNPLQQPRGRRGLGQRGSSRQGSPGSVSKQKPCDLP
cell viability (MTT), dominant-negative assay [5]: significant dose-dependent decreases | binding to RAB35 mRNA (northwestern blot) [1]: did not bind | complex formation between endogenous KOC1 and KIF11 ([2]; LC319 cells over-expressing the RRM domains): reduce complex formation | interaction with endogenous KIF11 (immunoprecipitation) ([4]; LC319 cells): detected interaction
